The values that follow come from PMC5116672.

A short description of series [1]: protein accumulation on Gp78 siRNA, immunoblot. Particulars: glycan lost; control: CD147(WT)-EGFP.
Series [2] is described as follows: confocal immunofluorescence with ER-Tracker, stable cells. The settings on record: glycan lost; control: CD147(WT)-EGFP.
Series [3] in a line: anti-EGFP immunoblot of total lysates; mRNA unchanged. Particulars: glycan lost; control: CD147(WT)-EGFP.
A short description of series [4]: immunofluorescence colocalisation with chaperones. Particulars: glycan lost; control: CD147(WT)-EGFP.
Series [5] in a line: confocal immunofluorescence with ER-Tracker, transient double mutants. The settings on record: glycan lost; control: CD147(WT)-EGFP.
Series [6] can be described thus: immunofluorescence with CNX, 12 h castanospermine. The settings on record: glycan changed form.
The nature of series [7]: immunofluorescence, aggregation with GRP78, 24 h castanospermine. The settings on record: glycan changed form; control: CD147(WT)-EGFP cells without CAS.

B1: CD147: N152Q (protein)
parent chain: MAAALFVLLGFALLGTHGASGAAGTVFTTVEDLGSKILLTCSLNDSATEVTGHRWLKGGVVLKEDALPGQKTEFKVDSDDQWGEYSCVFLPEPMGTANIQLHGPPRVKAVKSSEHINEGETAMLVCKSESVPPVTDWAWYKITDSEDKALMNGSESRFFVSSSQGRSELHIENLNMEADPGQYRCNGTSSKGSDQAIITLRVRSHLAALWPFLGIVAEVLVLVTIIFIYEKRRKPEDVLDDDDAGSAPLKSSGQHQNDKGKNVRQRNSS
As to B1, in series [1], the degradation_or_half_life entry is recorded as “decreases”. Besides, the figures for the localisation_or_trafficking entry in series [2] and in series [4] were “changes” and “increases”, respectively. Further, the expression_or_secretion entry in series [3] is “decreases”.

B2: CD147: N44/152Q (protein)
parent chain: B1 parent chain
In the case of B2, the localisation_or_trafficking result in series [5] was “changes”.

B3: CD147: N186Q (protein)
parent chain: B1 parent chain
For B3, in series [2], the localisation_or_trafficking entry is recorded as “changes”.

B4: CD147: castanospermine (CAS) 12 h (protein)
parent chain: B1 parent chain
With B4, the localisation_or_trafficking result in series [6] (control: CD147(WT)-EGFP cells without CAS) was “changes”.

B5: CD147: N44/152/186Q (protein)
parent chain: B1 parent chain
As for B5, the localisation_or_trafficking entry in series [2] was “changes”. Besides, the expression_or_secretion result in series [3] is reported as “decreases”.

B6: CD147: N44/186Q (protein)
parent chain: B1 parent chain
Consider B6, for which, in series [5], the localisation_or_trafficking entry is given as “no change”.

B7: CD147: N44Q (protein)
parent chain: B1 parent chain
For the protein B7, in series [2], the localisation_or_trafficking entry is given as “changes”.

B8: CD147: N152/186Q (protein)
parent chain: B1 parent chain
B8: the localisation_or_trafficking entry in series [5] was “changes”.

B9: CD147: castanospermine (CAS) 12 h on N44/186Q (protein)
parent chain: B1 parent chain
For the protein B9, the localisation_or_trafficking entry in series [6] (control: CD147(N44/186Q)-EGFP cells without CAS) was “changes”.

B10: CD147: castanospermine (CAS) 24 h (protein)
parent chain: B1 parent chain
On to B10, for which the stability_or_folding result in series [7] was “decreases”.
